The values that follow are results of earlier work, collected in PMC4097889.

The target in data set [1] is RXRα LBD (Homo sapiens) (UniProt P19793). Briefly: ITC.
For data set [2] the target is unchanged. Briefly: circular dichroism.

Sequence of UniProt P19793 (P19793 227-458): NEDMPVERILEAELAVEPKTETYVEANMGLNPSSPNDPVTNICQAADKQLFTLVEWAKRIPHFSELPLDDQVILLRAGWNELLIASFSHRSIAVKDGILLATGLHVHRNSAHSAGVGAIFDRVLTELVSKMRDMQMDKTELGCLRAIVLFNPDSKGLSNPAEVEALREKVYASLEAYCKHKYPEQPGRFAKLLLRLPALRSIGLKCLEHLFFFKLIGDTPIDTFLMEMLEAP

As for GRIP-1 peptide (from UniProt Q15596), the figures for the Kd in data set [1] and in data set [2] were 600 nM and 900 nM, respectively.
